Paper PMC7613515, “Reading and erasing of the phosphonium analogue of trimethyllysine by epigenetic proteins” (Communications Chemistry, 2022)
Read-outs that look alike come from different tables or passages of the source. Square brackets hold non-standard residues; d marks the D form. Ends that are not written are not given here. Lys(Me3) = C[N+](C)(C)CCCC[C@H](N)C(=O)O

Columns and labels:
[1] = biological target: T1, KDM5APHD3 (JARID1A-PHD3, residues M1489–V1641) (Homo sapiens, UniProt P29375); test: ITC, association of histone H3 peptides with KDM5APHD3; type: binding; details: 25 °C, H3 1-10 peptide (350–600 µM) into reader (25–40 µM), Tris (50 mM), NaCl (20 mM), pH 7.5, from 3 to 5 experiments
T1 construct: KDM5APHD3 (JARID1A-PHD3, residues M1489–V1641); made in house; host or cells: E. coli
T1 sequence (P29375 1489-1641): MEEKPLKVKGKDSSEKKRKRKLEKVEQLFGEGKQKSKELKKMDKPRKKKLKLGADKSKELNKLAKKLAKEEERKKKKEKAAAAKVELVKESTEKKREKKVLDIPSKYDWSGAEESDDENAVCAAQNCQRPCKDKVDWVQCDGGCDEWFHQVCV
Text: (§1) We investigated the thermodynamics of association of the H3KP4me3 peptide with five representative human reader domains containing either a PHD zinc finger or TTD, i.e. KDM5APHD3 (JARID1A-PHD3, residues M1489–V1641)[10], TAF3PHD (R857–K924)[22], BPTFPHD (L2583–N2751)[23], SGF29TTD (R115–K293)[24] and KDM4ATTD (JMJD2A, Q897-P1011)[25], selected on the basis of their preference for binding Ν^ε-trimethyllysine over other (non)methylation marks (Kme0 < Kme1 < Kme2 < Kme3), and their domain and aromatic cage diversity. The recombinant readers were produced in E. coli following reported procedures. Isothermal titration calorimetric (ITC) analyses were used to determine the dissociation constant (Kd), the Gibbs free energy of binding (ΔG°), the enthalpy of binding (ΔH°), and the entropy of binding (ΔS°). […] (Table 1, Fig. 2, Supplementary Fig. 1).
(§2) The following purified reader domains: TAF3PHD (R857-K924), KDM5APHD3 (JARID1A, M1489-V1641), BPTFPHD (L2583-N2751), KDM4ATTD (JMJD2A, Q897-P1011) and SGF29TTD (R115-K293) were prepared as reported[10],[22]–[26]. The histone lysine demethylase were produced and purified to high purity via reported procedures KDM3A (JMJD1A, T515-S1317)[41], KDM4AJmjC[39] (JMJD2A, M1-L359), KDM4EJmjC (JMJD2E, M1–Q337)[34] and KDM7B[40] (PHF8, M37-N483 [NP_001171]). KDM5DJmjC was produced using an N-terminal hexa-His tagged KDM4D (KDM4DM1-L358) DNA construct, transformed into BL21(DE3) competent cells for recombinant protein production. Colonies were used to inoculate of LB media (50 mL) containing kanamycin (50 µg·mL^−1) and chloramphenicol (34 µg·mL^−1), which was placed in a 37 °C shaker overnight. The starter culture (10 mL) was used to inoculate TB media (6 × 1 L) containing kanamycin (50 µg·mL^−1) in 2 L baffled shaker flasks. After reaching an of OD600 of ~0.8, the temperature was reduced to 18 °C; at OD600 ~0.9 the cells were induced by the IPTG (0.5 mM) addition. After shaking overnight, the culture was centrifuged (5000 rpm, 10 mins), the media was decanted, and the cell pellet was suspended in Lysis Buffer [HEPES (50 mM), NaCl (500 mM), imidazole (20 mM), glycerol (5%) and TCEP (0.5 mM) in water (pH 7.4)]. The suspension was lysed by passaging through a high-pressure cell breaker (Avestin – EmulsiFlex-C5) for three rounds. The lysate was cleared by centrifugation (60 minutes, 36,000 × g, 4 °C), then loaded onto a Ni NTA gravity column. […]
(§3) ITC studies followed a reported procedure. […] Histone peptide titrations were performed with the same reader batches. Solutions of the reader in buffer (25–40 µM) and of the histone H3 peptide (350–600 µM) in buffer were prepared. […] Heats of dilution for histone peptides determined in control experiments were subtracted from the titration binding data. […]

TAF3PHD (R857–K924) [2] = biological target: T2, TAF3PHD (R857–K924) (Mus musculus, UniProt Q5HZG4); test: ITC, association of histone H3 peptides with TAF3PHD; type: binding, human; details: 25 °C, H3 1-10 peptide (350–600 µM) into reader (25–40 µM), Tris (50 mM), pH 7.5, from 3 to 5 experiments
T2 construct: TAF3PHD (R857–K924); made in house; host or cells: E. coli
T2 sequence (Q5HZG4 857-924 limits assumed): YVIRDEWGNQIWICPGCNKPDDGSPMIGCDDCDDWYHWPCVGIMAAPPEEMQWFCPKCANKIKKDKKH
Text: as §1, §2, §3

SGF29TTD (R115–K293) [3] = biological target: T3, SGF29TTD (R115–K293) (Homo sapiens, UniProt Q96ES7); test: ITC, association of histone H3 peptides with SGF29TTD; type: binding; details: 25 °C, H3 1-10 peptide (350–600 µM) into reader (25–40 µM), pH 7.5, from 3 to 5 experiments
T3 construct: SGF29TTD (R115–K293); made in house; host or cells: E. coli
T3 sequence (Q96ES7 115-293): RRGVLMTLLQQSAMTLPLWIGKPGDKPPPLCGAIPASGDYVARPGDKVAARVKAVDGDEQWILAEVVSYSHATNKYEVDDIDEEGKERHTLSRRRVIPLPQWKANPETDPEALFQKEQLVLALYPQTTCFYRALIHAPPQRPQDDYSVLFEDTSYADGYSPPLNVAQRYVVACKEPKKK
Text: as §1
(§4) The following purified reader domains: TAF3PHD (R857-K924), KDM5APHD3 (JARID1A, M1489-V1641), BPTFPHD (L2583-N2751), KDM4ATTD (JMJD2A, Q897-P1011) and SGF29TTD (R115-K293) were prepared as reported[10],[22]–[26]. The histone lysine demethylase were produced and purified to high purity via reported procedures KDM3A (JMJD1A, T515-S1317)[41], KDM4AJmjC[39] (JMJD2A, M1-L359), KDM4EJmjC (JMJD2E, M1–Q337)[34] and KDM7B[40] (PHF8, M37-N483 [NP_001171]). KDM5DJmjC was produced using an N-terminal hexa-His tagged KDM4D (KDM4DM1-L358) DNA construct, transformed into BL21(DE3) competent cells for recombinant protein production. Colonies were used to inoculate of LB media (50 mL) containing kanamycin (50 µg·mL^−1) and chloramphenicol (34 µg·mL^−1), which was placed in a 37 °C shaker overnight. The starter culture (10 mL) was used to inoculate TB media (6 × 1 L) containing kanamycin (50 µg·mL^−1) in 2 L baffled shaker flasks. After reaching an of OD600 of ~0.8, the temperature was reduced to 18 °C; at OD600 ~0.9 the cells were induced by the IPTG (0.5 mM) addition. After shaking overnight, the culture was centrifuged (5000 rpm, 10 mins), the media was decanted, and the cell pellet was suspended in Lysis Buffer [HEPES (50 mM), NaCl (500 mM), imidazole (20 mM), glycerol (5%) and TCEP (0.5 mM) in water (pH 7.4)]. The suspension was lysed by passaging through a high-pressure cell breaker (Avestin – EmulsiFlex-C5) for three rounds. The lysate was cleared by centrifugation (60 minutes, 36,000 × g, 4 °C), then loaded onto a Ni NTA gravity column. After extensive rinsing of the Ni-NTA gravity column with lysis buffer, the His-tagged protein was eluted in lysis buffer containing 300 mM imidazole. The eluted protein was concentrated and subjected to gel filtration chromatography using an AKTA Xpress system, an S200 16/600 gel filtration column, and GF buffer [HEPES (50 mM), NaCl (150 mM), glycerol (5%) and TCEP (0.5 mM) in water (pH 7.4)]. The protein identity was verified by LC-MS (ESI-TOF) observing a mass of 43759.7 Da, in accord with the predicted mass of 43751.6 Da.
ITC studies followed a reported procedure. The buffer used corresponded to that used in the final protein purification step. […] Histone peptide titrations were performed with the same reader batches. Solutions of the reader in buffer (25–40 µM) and of the histone H3 peptide (350–600 µM) in buffer were prepared. […] Heats of dilution for histone peptides determined in control experiments were subtracted from the titration binding data. […]

[4] = biological target: T4, KDM4ATTD (JMJD2A, Q897-P1011) (Homo sapiens, UniProt O75164); test: ITC, association of histone H3 peptides with KDM4ATTD; type: binding; details: 25 °C, H3 1-10 peptide (350–600 µM) into reader (25–40 µM), Tris (50 mM), pH 7.5, from 3 to 5 experiments
T4 construct: KDM4ATTD (JMJD2A, Q897-P1011); made in house; host or cells: E. coli
T4 sequence (O75164 897-1011): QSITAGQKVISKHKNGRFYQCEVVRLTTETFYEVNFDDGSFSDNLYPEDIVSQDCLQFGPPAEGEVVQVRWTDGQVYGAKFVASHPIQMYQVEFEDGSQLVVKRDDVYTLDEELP
Text: as §1, §4
ITC studies followed a reported procedure. The buffer used corresponded to that used in the final protein purification step. Briefly, TAF3PHD and KDM4ATTD: [Tris (50 mM) in water (pH 7.5)]; KDM5APHD3 and BTPFPHD: [Tris (50 mM), NaCl (20 mM) in water (pH 7.5)]; [Tris (25 mM), NaCl (50 mM), 1,4-dithiothreitol (1.0 mM) in water (pH 7.5)]. Experiments were conducted using ITC200 automated (GE Healthcare Life Sciences, USA) instrument at 25 °C. Histone peptide titrations were performed with the same reader batches. Solutions of the reader in buffer (25–40 µM) and of the histone H3 peptide (350–600 µM) in buffer were prepared. The prepared solutions were plated into a 96-well plate and inserted into the instrument for analysis. Experiments were performed according to manufacturer’s default settings: Plate pre-rinse syringe clean. A total of 19 injections were performed; each experiment was repeated 3–5 times. Heats of dilution for histone peptides determined in control experiments were subtracted from the titration binding data. […]

[5] = cited from earlier work
Text: Some JmjC KDMs can also catalyse N-methyl arginine demethylation and with appropriately sized N^ε-substitutions some can catalyse forma ...

KDM4E = details: reported, shorter H3_7-14K9me3 substrate; cited from earlier work
Text: Reactions were monitored using MALDI-TOF mass spectrometry (Fig. 5b–d). […] Some JmjC KDMs can also catalyse N-methyl arginine demethylation and with appropriately sized N^ε-substitutions some can catalyse forma ...

BPTFPHD (L2583–N2751) = biological target: T5, BPTFPHD (L2583–N2751) (Homo sapiens, UniProt Q12830); details: reported, ITC, H3 1-10, cited from earlier work
T5 construct: BPTFPHD (L2583–N2751); made in house; host or cells: E. coli

[6] = biological target: T1, KDM5APHD3 (JARID1A-PHD3, residues M1489–V1641); details: reported, ITC, H3 1-10, cited from earlier work
Text: page 30: Supplementary Table 5 Overview of reported ITC binding values of chromatin binding modules with H3 peptides (K d in µM) with various lysine modification. […] N.D. not determined; N.M: not measured. Modification KDM5A PHD3 TAF3PHD BPTFPHD SGF29TT ...

[7] = biological target: T4, KDM4ATTD (JMJD2A, Q897-P1011); details: reported, ITC, H3 1-10, cited from earlier work
Text: (§5) N.D. not determined; N.M: not measured. Modification KDM5A PHD3 TAF3PHD BPTFPHD SGF29TT ...

SGF29TTD (R115–K293) [8] = biological target: T3, SGF29TTD (R115–K293); details: reported, ITC, H3 1-10, cited from earlier work
Text: as §5

TAF3PHD (R857–K924) [9] = biological target: T2, TAF3PHD (R857–K924); details: reported, ITC, H3 1-10, cited from earlier work
Text: as §5

Molecule: C[C@H](N)C(=O)N[C@@H](CCCNC(=N)N)C(=O)N[C@H](C(=O)N[C@@H](CCCC[N+](C)(C)C)C(=O)N[C@@H](CCC(N)=O)C(=O)N[C@H](C(=O)N[C@@H](C)C(=O)N[C@@H](CCCNC(=N)N)C(=O)N[C@@H](CCCCN)C(=O)N[C@@H](CO)C(N)=O)[C@@H](C)O)[C@@H](C)O [H3K4me3, reference compound]
- Kd [1]: 0.52 µM
- Kd (TAF3PHD (R857–K924) [2]): 0.11 µM
- Kd (SGF29TTD (R115–K293) [3]): 3.2 µM
- Kd [4]: 3.5 µM

Molecule: C[N+](C)(C)C [^+Nme4, reference compound]
- volume [5]: 105 Å^3

Molecule: C[P+](C)(C)C.[I-] [^+Pme4, reference compound]
- volume [5]: 115 Å^3

Molecule: H3_7-14K9me3: shorter H3_7-14K9me3 substrate (AR[Lys(Me3)]STGGK; UniProt P68431 8-15, looked up, fragment)
- Km (KDM4E): 21.3 µM
- kcat (KDM4E): 0.0767 s⁻¹

Molecule: K4Cme3: H3 1-10 peptide with K4Cme3 modification, Hintzen et al.
- Kd (BPTFPHD (L2583–N2751); ref Hintzen et al. (SI ref 11)): 3.8 µM

Molecule: K4Cme3: H3 1-10 peptide with K4Cme3 modification, Hintzen et al. (ARTCQTARKS; Cys4 S-alkylated with 2-(trimethylammonio)ethyl = trimethylthialysine, a cysteine-derived trimethyllysine analogue (identity inferred from the cited Hintzen et al. work))
- Kd ([6]; ref Hintzen et al. (SI ref 11)): 0.15 µM
- Kd ([7]; ref Hintzen et al. (SI ref 11)): 3.1 µM
- Kd (SGF29TTD (R115–K293) [8]; ref Hintzen et al. (SI ref 11)): 6.1 µM
- Kd (TAF3PHD (R857–K924) [9]; ref Hintzen et al. (SI ref 11)): 0.042 µM

Molecule: K4G: K4me3 in H3K4me3 substituted for glycine (ARTGQTARKS)
- Kd ([6]; ref Kamps et al. (SI ref 9)): 88 µM
- Kd (TAF3PHD (R857–K924) [9]; ref Kamps et al. (SI ref 9)): 36 µM

Molecule: L-K4me3: H3 1-10 peptide with L-K4me3 modification, Belle et al.
- Kd ([6]; ref Belle et al. (SI ref 8)): 0.11 µM
- Kd ([7]; ref Belle et al. (SI ref 8)): 1.1 µM
- Kd (SGF29TTD (R115–K293) [8]; ref Belle et al. (SI ref 8)): 1.7 µM
- Kd (TAF3PHD (R857–K924) [9]; ref Belle et al. (SI ref 8)): 0.082 µM
- Kd (BPTFPHD (L2583–N2751); ref Belle et al. (SI ref 8)): 0.44 µM
